Measurements reported in patent US20180149657A1 (IMMUNOMEDICS, published 2018).

Molecular target: T1, human Trop-2 (human, UniProt P09758 27-323)
T1 construct: whole, on cells; also called EGP-1; epithelial glycoprotein-1
T1 sequence (looked up): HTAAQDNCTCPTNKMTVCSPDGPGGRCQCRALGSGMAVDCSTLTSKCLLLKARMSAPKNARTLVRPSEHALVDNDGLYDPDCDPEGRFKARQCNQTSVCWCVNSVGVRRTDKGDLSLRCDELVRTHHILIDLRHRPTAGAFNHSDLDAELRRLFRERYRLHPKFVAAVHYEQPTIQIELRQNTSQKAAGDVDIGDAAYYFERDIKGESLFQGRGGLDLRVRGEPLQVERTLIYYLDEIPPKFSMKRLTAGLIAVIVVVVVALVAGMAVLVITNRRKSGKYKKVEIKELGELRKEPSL
Assay: cell binding assay on NCI-N87 cells, anti-mouse-HRP secondary, luminescence

Kd: 0.57 nM
B1: murine RS7 (antibody, V domains shown)
VH: VKLQESGPELKKPGETVKISCKASGYTFTNYGMNWVKQAPGKGLKWMGWINTYTGEPTYTDDFKGRFAFSLETSATTAYLQINNLKSEDMATYFCARGGFGSSYWYFDVWGQGTTVTVSS
VL: DIQLTQSHKFMSTSVGDRVSITCKASQDVSIAVAWYQQKPGQSPKLLIYSASYRYTGVPDRFTGSGSGTDFTFTISSVQAEDLAVYYCQQHYITPLTFGAGTKLELK
